In the DeepSol protein solubility set:

Assay: soluble on expression in E. coli; label from the status in PepcDB or PDB records

Row | Sequence | soluble on expression in E. coli
1 | MEIERINEHTVKFYISYVDIEERGFDREEIWYNRERSEELFWEMMDEVHGESDFSLDGPLWIQVQALEKGLEVVVTKAQLSKDGSKLELPLPEEKWREFSLSADEKVESLFGHHFHFGQNGDAEEREEQDVLRFILSFKDIEDVISLAHRADFSRLSNRLFQFEGRYYLFVEFDERYTEQEVDNMLSLLLEYGSDSQLTIYRLEEYGTEIMGDNALETIKTYFPAS | not soluble
2 | MSAFTPASEVLLRHSDDFEQSRILFAGDLQDDLPARLDTAASRAHTQQFHHWQVLSRQMGDNARFSLVATADDVADCDTLIYYWPKNKPEAQFQLMNLLSLLPVGTDIFVVGENRSGVRSAEQMLADYAPLNKVDSARRCGLYFGRLEKQPVFDAEKFWGEYSVDGLTVKTLPGVFSRDGLDVGSQLLLSTLTPHTKGKVLDVGCGAGVLSVAFARHSPKIRLTLCDVSAPAVEASRATLAANGVEGEVFASNVFSEVKGRFDMIISNPPFHDGMQTSLDAAQTLIRGAVRHLNSGGELRIVANAFLPYPDVLDETFGFHEVIAQTGRFKVYRAIMTRQAKKG | soluble
3 | MKGNYVQVYVMLPLDAVSVNNRFEKGDELRAQLRKLVEAGVDGVMVDVWWGLVEGKGPKAYDWSAYKQLFELVQKAGLKLQAIMSFHQCGGNVGDAVNIPIPQWVRDVGTRDPDIFYTDGHGTRNIEYLTLGVDNQPLFHGRSAVQMYADYMTSFRENMKDFLDAGVIVDIEVGLGPAGELRYPSYPQSHGWSFPGIGEFICYDKYLQADFKAAAAAVGHPEWEFPNDAGQYNDTPERTQFFRDNGTYLSEKGRFFLAWYSNNLIKHGDRILDEANKVFLGYKVQLAIKIAGVHWWYKVPSHAAELTAGYYNLHDRDGYRTIARMLKRHRASINFTCAEMRDSEQPPDAMSAPEELVQQVLSAGWREGLNVSCENALPRYDPTAYNTILRNARPHGINQSGPPEHKLFGFTYLRLSNQLVEGQNYVNFKTFVDRMHANLPRDPYVDPMAPLPRSGPEISIEMILQAAQPKIQPFPFQEHTDLPVGPTGGMGGQAEGPTCG | soluble
4 | MFFESCKSILYSDTLVPDIFITEYMPLLSSDSVKVYLYSLFLSKHNKKASTEEFAKSMGLEISTVKECLAQLESMGVLTWKEDGLVLHDLKEKEINKMYRLKTTSTPEEVASNCEKNKKRNEIIYTINNTFFQGVMSPSWYTDIDAWFDRYKFDEDVMLALFQYCFDHKGLIKPYIEKVAESWKNRNIRNAFDLDNYSIQYKKFKDVRSAIVKKLKLGRNLTEYEEAYVEKWVMDYNYDFDIIELALKKTTSKTNPNFDYLDSIITDWHNNNFKTKEEIMSYEAARKKKNSRTSSVSASVIVPQKGNFEQRKYEDEYLNSLYENA | not soluble
5 | YPPSMDWRKKGNFVSPVKNQGSCGSCWTFSTTGALESAVAIATGKMLSLAEQQLVDCAQNFNNHGCQGGLPSQAFEYIRYNKGIMGEDTYPYKGQDDHCKFQPDKAIAFVKDVANITMNDEEAMVEAVALYNPVSFAFEVTNDFLMYRKGIYSSTSCHKTPDKVNHAVLAVGYGEENGIPYWIVKNSWGPQWGMNGYFLIERGKNMCGLAACASYPIPLV | soluble
6 | MSLRLKTILLTTMATGSFLCEPVAAMCIEPPATPDMGWFLKKKKKSNPQDSIKVKNEYEKLTGSDSVVRRGMFNVYQKKNDYYFEIPSTLLERDMLVVNKLQRVPAELNEAGVNRGTNYENQMIRFELDKSANKLLIRQSRPLPISPSEDAISQSVKDNYISPLIAGFKVEAYNNDSTSILIKVNDIYDGTETSINNVFTNINLGTSAIKNLSRILSIKSFDNNVVATSELTTRVTEGTTTIYVTVEVSSSILLLPEVPMTGRLDNPRVGYFTNPLTNFSDGQQRVNKKQFITRWRLEPRPEDRAAYLRGELVEPRKPIVFYIENSTPYRWRKYIKQGIEDWQVAFERAGFKNAIIAKDITEDMEVDMDDVNYSVLTYAASTKANAMGPSILDPRSGEILEADIMWWHNVLSMLQEWITVQTGVVRPEARGVALPDSLMGDAMRFVACHEVGHSLGLRHNMMGSWAFPTDSLRSKTFTDRMNSTSSSIMDYARFNYVAQPGDGIKALSPHIGPYDMFAIEYGYRWYGKQTPEEEKELLQDFLAKHTDRLYKYSEAQDEGHHHHHH | soluble
7 | MTAPRKTRTEVITTVLNLERTLAQTVLGINDENLRVLDNQIDCDIHVRGTHVELTGPAHEVSRASKIFEELQAIARRGHVISPETVKNVISMINVETPQTVSEILTGDILARRGKVIRPKTLGQKHYVDAIDTNTIVFGLGPAGSGKTYLAMAKAVQALQSKQVSRIILTRPAVEAGEKLGFLPGTLNEKIDPYLRPLHDALRDMVEPEVIPKLMEAGIVEVAPLAYMRGRTLNDAFVILDEAQNTTPAQMKMFLTRLGFGSKMVVTGDITQVDLPGGQKSGLRLVRHILRGVDDVHFSELTSSDVVRHQLVGHIVDAYEDYEEREARELKRKRQETRP | not soluble
8 | MAHHHHHHMKENVLINENIKAHEEKGNLNDDKRDEHMISLRGLNIYYKDKLENLNTIKNIDNNKKFIKLVLEDVDLKPEEIMKHILHLLKEKTSLHTILEINKQKYKIKYKEIIPDDHILFTQNIQNITNCKYALLGILKVSKYTKKNTFNEKLLQSWQDVPMEF | not soluble
9 | MAHTITIVGLGNYGIDDLPLGIYKFLKTQDKVYARTLDHPVIESLQDELTFQSFDHVYEAHDQFEDVYNDIVAQLVEAANEKDIVYAVPGHPRVAETTTVKLLALAKDNTDIDVKVLGG | soluble
10 | MGSDKIHHHHHHMKNKVGIMYDNISGNTGDVAIGISLRKIMKELKVDFDEILLNNIDVLKYNTVIIGGGHLLRENSDFFYDKFKLRGPNILNSVGVVGNPNDLQYLEEYKYVTFRSEGDRKKAGYLNKKSSVVPCTTMLLDDLQDFPIHIKRPAIGVHLIPNIFSKEEEGLFVKWASKLPYTIYFIPITHYNYDYIYMSKLSQRISNSRVLPIMKPLEIFTFIGKLDYLITCSLHGSIFSYIHNVPFILMEQEKSRFFLEDRGLQGYLFSNLKEIIGLTEKVINNPLDYSNLIVKDKKILEEHVENIKQIVPNNSTYILSKECTESDEITQLNLQNGILQINLSKLTYELEAYKKEIKGINFRLKDEESKHMYYKKELKKIYRSRGWKALKKFYSLKDFISKKINGA | not soluble
11 | MGSDKIHHHHHHMLISANFDGGNIEVINQDDINNVQLAIRPDEGGEFFQWFNFRLQGEVGQRYTLNIINAGQASYTKGWEDYQAAATYDRQQWFRLPTQYQDGKLTIEVELDCEMIQIAYFAPYSYERHQDLLSAVQVHPLVSLEHLGKTLDDRDMTLVKVGDEDEEKAKIWITARQHPGETMAEWLVEGLLNNLLDGDCPTAKALLDKANFYIVPNMNPDGGVRGHLRTNAKGVNLNREWQSPSLEKSPEVYHVVNRMKETGVDLYYDVHGDEGLPYVFLAGCEGVPGYNQKMADLQGDFVKALLMASADFQDEFGYDKDEPGQANLTVASNWVAQTFGCLSNTLEMPFKDNANMPDPMSGWSPERCIYLGEASLLAMLAVVDKLR | not soluble
12 | EERFAELFAAVDWISLGGGIHFTAENYPLETFAERLKHFSKTYDVTIFLEPGEAAITKSTTLEVSVLDTLYNEKNLAIVDSSIEAHMLDLLIYRENAKLEQNQGPYEIMVCGKSCLAGDIFGTFRFPEPLKIGDRLSFQDTAGYTMVKKNWFNGVTMPAIVIKECNGALTIQRQFSYNDYQKSLS | not soluble
13 | MGSDKIHHHHHHMPYDEILPIETLVRPKVSDFREHYLEKERPVKIARALDAWPAMQKWSLDYFENRFGDETIGVESFQPDERGPGNNSPQGYVKHLRFQELKLKELIRILRTKPDHMYYMASHPFRKSFPNLRADLAPHPYVQGHIEHIPGAHMDSYLWIGPAGTHTPIHTDPMPNFLTQIVGRKMVYLFPPDQASKNLYIGQFERETFSPVDLEKPDLERYPNYRHCTPYRAIIEPGETLHIPRNWGHCVISMDISISISTFFITYPQLFRLVPEFFTQYVKRAFEGWRWKGMENERAGLNPPPR | not soluble
14 | IDPFTADAGHTEFTDEVYQNESRYPGGDWKPAEDTYTDANGDKAASPSELTCPPGWEWEDDAWSYDINRAVDEKGWEYGITIPPDHKPKSWVAAEKMYHTHRRRRLVRKRKKDLTQTASSTAR | soluble
15 | MSTRSARIVVVSSRAAAGVYTDDCGPIIAGWLEQHGFSSVQPQVVADGNPVGEALHDAVNAGVDVIITSGGTGISPTDTTPEHTVAVLDYVIPGLADAIRRSGLPKVPTSVLSRGVCGVAGRTLIINLPGSPGGVRDGLGVLADVLDHALEQIAGGDHPR | soluble
